Test results from PMC3691600, “Conversion of fatty aldehydes into alk (a/e)nes by in vitro reconstituted cyanobacterial aldehyde-deformylating oxygenase with the cognate electron transfer system” (Biotechnology for Biofuels, 2013).

Target: Aldehyde-deformylating oxygenase (Synpcc7942_1593) from Synechococcus elongatus PCC7942 (Synechococcus elongatus PCC7942) (UniProt Q54764)
Sequence (Q54764 whole entry): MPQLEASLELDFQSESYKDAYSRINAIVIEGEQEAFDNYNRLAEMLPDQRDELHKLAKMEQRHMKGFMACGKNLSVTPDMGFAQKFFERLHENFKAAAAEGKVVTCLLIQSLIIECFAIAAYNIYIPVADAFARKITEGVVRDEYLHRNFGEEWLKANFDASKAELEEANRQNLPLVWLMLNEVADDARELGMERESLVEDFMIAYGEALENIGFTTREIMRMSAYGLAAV

Spinach ferredoxin, sequence (P00221 51-147): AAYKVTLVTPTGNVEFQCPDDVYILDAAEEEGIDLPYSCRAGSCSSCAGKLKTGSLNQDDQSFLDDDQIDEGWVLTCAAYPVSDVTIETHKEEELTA

Spinach ferredoxin (from UniProt P00221 51-147) (natural protein)
Yield of n-pentadecane by ADO 1593 with Fd (spinach) + FNR (PCC7942) + NADPH: 13.9 µM
Yield of n-pentadecane by ADO 1593 with Fd (spinach) + FNR (spinach) + NADPH: 15.7 µM
